Patent US20150086555A1

B1: TCN-523 (5248_A17) (antibody, V domains shown)
VH: QVQLVQSGAEVKKPGSSVKVSCKASGGSFSNYAFSWVRQAPGQGLEWMGGTIPLLGTTNYAQKFQGRVTISADQFTSTAYMELGSLRSEDTAVYYCTRRKMTTAFDSWGQGTLVTVSS
VL: QPVLTQPPSASASLGASVTLTCTLSSAYSNYKVDWYQQRPGKGPRFVMRVGTGGIVGSKGDGIPDRFSVLGSGLNRYLTIKNIQEEDESDYHCGADHGSGSNFVSPYVFGGGTKLTVL
B2: TCN-534 (5249_B02) (antibody, V domains shown)
VH: QVQLVQSGAEVKKPGSSVKVSCRESGGTFNGYTITWVRQAPGQGLEWMGGIIPMMGTVNYAQKLQGRVTITTDYFTKTAYMDLNNLRSEDTAMYYCVKIRYTGQQLLWGQGTLVTVSS
VL: DIQMTQSPSTLSASIGDRVTITCRASQSIASWLAWYQQKPGKAPKLLIYEAVNLESGVPSRFSGSGSGTDFTLTISSLQPDDFATYFCQHYGTISQTFGGGTKVEIK
B3: TCN-546 (5089_L08) (antibody, V domains shown)
VH: QVQLQQWGAGLLKPSETLSLTCGVYGGSLSDYYWSWIRQPPGKGLEWIGEINHSGGTNYNPSLKRRVTISVDTSKKQFSLKMNSVTAADTAVYYCARGTDPDTEVYCRAGNCAAFDFWGQGTLVTVSS
VL: EIVLTQSPGTLSLSPGERATLSCRASHFVIGRAVAWYQQKPGQAPRLLIYGASSRATGIPDRFSGSGSGTDFTLTISRLETEDFAVFYCQHYGSSPRYAFGQGTKLEIK
B4: TCN-538 (3206_O17) (antibody, V domains shown)
VH: QITLKESGPTLVKPTQTLTLTCVFSGFSLSITGVRVGWIRQPPGKALEWLALISWDDEKHYSPSLQSRLTITKDTSKNQVVLTMTNLDPVDTATYYCARSTDRGHVLRYFGWMLPGDAFDVWGQGTMVTVSS
VL: DIVMTQSPDFLPVSLGERATINCKSSQRVLYSSNNKNYLAWYQLKPGQPPKLIIYWASTRESGVPDRFSGSGSGTEFTLTISSLQAEDVAVYYCQQYYSRPYTFGQGTKLEIK
B5: TCN-522 (3212_I12) (antibody, V domains shown)
VH: QVQLQQWGAGLLKPSETLSLTCTVSGGSLTDYSWNWIRQPPGKGLEWIGDTLHNGYTNYNPSLRGRVSISIDTSKNQVSLRLTSVTAADTALYYCARGSGGYGGFDYFGKLRTWDFWGQGTLVTVSS
VL: DIQLTQSPSSLSASVGDRVTITCRASQGIRNDLGWYQQKPGNAPKRLIFGASSLQSGVPSRFSGSGSGTEFTLTISSLQPEDFATYYCLQHNSYPYTFGQGTKLEIK

target: recombinant soluble homotrimeric HA of A/chicken/Vietnam/NCVD-016/08 (H5N1) (Influenza A virus A/chicken/Vietnam/NCVD-016/2008(H5N1)); experiment: HA microarray, BCC supernatant; conditions: remark: other sources report otherwise

Binder | Trimeric HA Binding: RLU [RLU]
B1 | 48900
B2 | 56600
B3 | 421
B4 | 37300

target: recombinant soluble homotrimeric HA of A/Hong Kong/2108/03 (H9N2) (Influenza A virus A/HK/2108/2003(H9N2)); experiment: HA microarray, BCC supernatant; conditions: remark: other sources report otherwise

Binder | Trimeric HA Binding: RLU [RLU]
B1 | 189
B2 | 165
B3 | 13000
B4 | 109
B5 | 639

target: recombinant soluble homotrimeric HA of A/duck/Yangzhou/02/05 (H8N4) (Influenza A virus A/duck/Yangzhou/02/2005(H8N4)); experiment: HA microarray, BCC supernatant; conditions: remark: other sources report otherwise

Binder | Trimeric HA Binding: RLU [RLU]
B2 | 46500
B3 | 487
B4 | 6120
B5 | 502

target: recombinant soluble homotrimeric HA of A/Netherlands/219/03 (H7N7) (Influenza A virus A/Netherlands/219/03(H7N7)); experiment: HA microarray, BCC supernatant; conditions: remark: other sources report otherwise

Binder | Trimeric HA Binding: RLU [RLU]
B1 | 2340
B2 | 4340
B3 | 1450

target: recombinant soluble homotrimeric HA of A/northern shoveler/California/HKWF115/07 (H6) (Influenza A virus A/northern shoveler/California/HKWF115/2007(H6N1)); experiment: HA microarray, BCC supernatant; conditions: remark: other sources report otherwise

Binder | Trimeric HA Binding: RLU [RLU]
B1 | 46900
B2 | 52400
B4 | 17400

target: recombinant soluble homotrimeric HA of A/California/4/09 (H1N1) (Influenza A virus A/California/04/2009(H1N1)); experiment: HA microarray, BCC supernatant; conditions: remark: other sources report otherwise

Binder | Trimeric HA Binding: RLU [RLU]
B1 | 34700
B2 | 30100
B3 | 350
B4 | 13800
B5 | 5020

target: recombinant soluble homotrimeric HA of A/Wisconsin/67/05 (H3N2) (Influenza A virus A/Wisconsin/67/2005(H3N2)); experiment: HA microarray, BCC supernatant; conditions: remark: other sources report otherwise

Binder | Trimeric HA Binding: RLU [RLU]
B2 | 7980
B3 | 30200
B4 | 6900

target: recombinant soluble homotrimeric HA of A/Japan/305/57 (H2N2) (Influenza A virus A/Japan/305/1957(H2N2)); experiment: HA microarray, BCC supernatant; conditions: remark: other sources report otherwise

Binder | Trimeric HA Binding: RLU [RLU]
B1 | 5110
B2 | 50600
B3 | 520
B4 | 43000
B5 | 989

target: recombinant soluble homotrimeric HA of A/Anhui/1/05 (H5N1) (Influenza A virus A/Anhui/1/2005(H5N1)); experiment: HA microarray, BCC supernatant; conditions: remark: other sources report otherwise

Binder | Trimeric HA Binding: RLU [RLU]
B1 | 5700
B2 | 6860
B3 | 2040
B4 | 689

target: recombinant soluble homotrimeric HA of A/Indonesia/5/05 (H5N1) (Influenza A virus A/Indonesia/5/2005(H5N1)); experiment: HA microarray, BCC supernatant; conditions: remark: other sources report otherwise

Binder | Trimeric HA Binding: RLU [RLU]
B1 | 45800
B2 | 46400
B3 | 18400
B4 | 26400
B5 | 67

target: recombinant soluble homotrimeric HA of A/Vietnam/1203/04 (H5N1) (Influenza A virus A/VietNam/1203/2004(H5N1)); experiment: HA microarray, BCC supernatant; conditions: remark: other sources report otherwise

Binder | Trimeric HA Binding: RLU [RLU]
B1 | 3380
B2 | 3440
B3 | 349
B4 | 60
B5 | 145

target: recombinant soluble homotrimeric HA of A/Solomon Islands/3/06 (H1N1) (Influenza A virus A/Solomon Islands/3/2006(H1N1)); experiment: HA microarray, BCC supernatant; conditions: remark: other sources report otherwise

Binder | Trimeric HA Binding: RLU [RLU]
B1 | 37900
B2 | 44200
B4 | 33200
B5 | 38900

target: recombinant homotrimeric HA A/California/4/09 H1N1 (Influenza A virus A/California/04/2009(H1N1)); experiment: protein microarray, purified IgG, trimeric HA; conditions: remark: other sources report otherwise

Binder | Trimeric HA Binding: RLU [RLU]
B1 | 19500
B2 | 20700
B3 | 277
B4 | 4810
B5 | 13900

target: recombinant homotrimeric HA A/Egypt/3300-NAMRU3/08 H5N1 (Influenza A virus A/Egypt/3300-NAMRU3/2008(H5N1)); experiment: protein microarray, purified IgG, trimeric HA; conditions: remark: other sources report otherwise

Binder | Trimeric HA Binding: RLU [RLU]
B1 | 21300
B2 | 18200
B3 | 11200
B4 | 7290
B5 | 11300

target: recombinant homotrimeric HA A/South Carolina/1/18 H1N1 (Influenza A virus A/South Carolina/1/18 (H1N1)); experiment: protein microarray, purified IgG, trimeric HA; conditions: remark: other sources report otherwise

Binder | Trimeric HA Binding: RLU [RLU]
B1 | 9720
B2 | 9240
B3 | 88
B4 | 6770
B5 | 4500

target: recombinant homotrimeric HA A/Hong Kong/156/97 H5N1 (Influenza A virus A/Hong Kong/156/97 (H5N1)); experiment: protein microarray, purified IgG, trimeric HA; conditions: remark: other sources report otherwise

Binder | Trimeric HA Binding: RLU [RLU]
B1 | 5810
B2 | 13200
B3 | 890
B4 | 7080
B5 | 14800

target: recombinant homotrimeric HA A/Netherlands/219/03 H7N7 (Influenza A virus A/Netherlands/219/03(H7N7)); experiment: protein microarray, purified IgG, trimeric HA; conditions: remark: other sources report otherwise

Binder | Trimeric HA Binding: RLU [RLU]
B2 | 3420
B3 | 386
B4 | 446

target: recombinant homotrimeric HA A/Solomon Islands/3/06 H1N1 (Influenza A virus A/Solomon Islands/3/2006(H1N1)); experiment: protein microarray, purified IgG, trimeric HA; conditions: remark: other sources report otherwise

Binder | Trimeric HA Binding: RLU [RLU]
B1 | 5130
B2 | 11400
B4 | 9740
B5 | 19100

target: recombinant homotrimeric HA A/Anhui/1/05 H5N1 (Influenza A virus A/Anhui/1/2005(H5N1)); experiment: protein microarray, purified IgG, trimeric HA; conditions: remark: other sources report otherwise

Binder | Trimeric HA Binding: RLU [RLU]
B1 | 7240
B2 | 1900
B3 | 21400
B5 | 5260

target: recombinant homotrimeric HA A/Wisconsin/67/05 H3N2 (Influenza A virus A/Wisconsin/67/2005(H3N2)); experiment: protein microarray, purified IgG, trimeric HA; conditions: remark: other sources report otherwise

Binder | Trimeric HA Binding: RLU [RLU]
B3 | 25500
B5 | 108

target: recombinant homotrimeric HA A/Indonesia/5/05 H5N1 (Influenza A virus A/Indonesia/5/2005(H5N1)); experiment: protein microarray, purified IgG, trimeric HA; conditions: remark: other sources report otherwise

Binder | Trimeric HA Binding: RLU [RLU]
B1 | 16900
B2 | 19500
B3 | 147
B4 | 7450
B5 | 12500

target: recombinant homotrimeric HA A/Hong Kong/2108/03 H9N2 (Influenza A virus A/HK/2108/2003(H9N2)); experiment: protein microarray, purified IgG, trimeric HA; conditions: remark: other sources report otherwise

Binder | Trimeric HA Binding: RLU [RLU]
B1 | 163
B2 | 172
B3 | 307
B4 | 172

target: recombinant homotrimeric HA A/chicken/Vietnam/NCVD-016/08 H5N1 (Influenza A virus A/chicken/Vietnam/NCVD-016/2008(H5N1)); experiment: protein microarray, purified IgG, trimeric HA; conditions: remark: other sources report otherwise

Binder | Trimeric HA Binding: RLU [RLU]
B1 | 4960
B2 | 5170
B3 | 207
B4 | 1060
B5 | 1960

target: recombinant homotrimeric HA A/Vietnam/1203/04 H5N1 (Influenza A virus A/VietNam/1203/2004(H5N1)); experiment: protein microarray, purified IgG, trimeric HA; conditions: remark: other sources report otherwise

Binder | Trimeric HA Binding: RLU [RLU]
B1 | 20000
B2 | 25900
B3 | 1200
B4 | 14000
B5 | 11300

target: recombinant homotrimeric HA A/Hong Kong/1073/99 H9N2 (Influenza A virus A/Hong Kong/1073/99 (H9N2)); experiment: protein microarray, purified IgG, trimeric HA; conditions: remark: other sources report otherwise

Binder | Trimeric HA Binding: RLU [RLU]
B1 | 2130
B2 | 918
B3 | 505
B4 | 1270
B5 | 5050

target: recombinant homotrimeric HA A/northern shoveler/California/HKWF115/07 H6N4 (Influenza A virus A/northern shoveler/California/HKWF115/2007(H6N1)); experiment: protein microarray, purified IgG, trimeric HA; conditions: remark: other sources report otherwise

Binder | Trimeric HA Binding: RLU [RLU]
B1 | 3370
B2 | 21700
B4 | 11400
B5 | 3180

target: recombinant homotrimeric HA A/Japan/305/57 H2N2 (Influenza A virus A/Japan/305/1957(H2N2)); experiment: protein microarray, purified IgG, trimeric HA; conditions: remark: other sources report otherwise

Binder | Trimeric HA Binding: RLU [RLU]
B1 | 15300
B2 | 29100
B3 | 503
B4 | 20500
B5 | 9740
